Assay [1] concerns the target H2-L^d on TAP-deficient RMA-S.L^d cells. Put plainly: flow cytometry on cells (RMA-S.Ld surface Ld stabilisation). The settings on record: read at the highest peptide concentration, log [peptide in µM] = 0; parent: est. 670; read off a plot.
A further assay has as its system TG6 TCR. Put plainly: Surface plasmon resonance of L^d-HF10 (WT and alanine variants) binding to immobilised TG6 TCR. On the set-up: species or system mouse. Conditions: SPR, BIAcore SA chip, ~2000 RU biotinylated TG6 TCR; soluble L^d-peptide injected; two-state reaction fit. The source says: We used two systems to generate L^d-HF10. For biophysical and crystallographic studies of pMHC, we produced soluble L^d-HF10 by baculovirus-infected insect cell expression ([26]). The DNA encoding L^d (α1-α3) and HF10 (or alanine substituted variants) fused via a linker to β2m were cloned into pbac plasmid under polyhedrin and p10 promoters to produce secreted soluble Ld-HF10 from Hi5 insect cells. In this construct, L^d Tyr 84 and Gly at peptide p12 position from the linker that attaches β2m to pHF10 were mutated to cysteines to form a disulfide bond ([27]). Secreted L^d-HF10 in insect cell medium was captured with immunoaffinity chromatography and further purified by GE Healthcare FPLC Superdex 200 10/300 GL size exclusion column. For the crystallography of the TCR/peptide/MHC ternary complex, we produced the wild type L^d variable region (α1-α2). L^d (α1-α2) was expressed in E. coli BL21 as an inclusion body, solubilized in 8M urea, and refolded with synthetic HF10 peptide (HPGSVNEFDF, ordered from Peptide 2.0 Inc.) ([28], [29]). Refolded L^d-HF10 was further purified with a HiLoad Superdex 200 26/600 size chromatography column.
TG6 α and β TCR chains were also produced by both baculovirus insect cell and bacterial expression systems. […]
Approximately 2000 RU of biotinylated TG6 TCR was captured in the flow cells of a BIAcore streptavidin (SA) BIAsensor chip. Various concentrations of insect cell-produced L^d-HF10 and its mutated variant peptides were injected into the sensor chip and the association and dissociation kinetics were recorded and then corrected for the fluid phase SPR signal using the data from the biotinylated mouse BDC2.5 TCR. Kinetics was analyzed with BIAcore BIAEval 4 software. […]
(A) Corrected surface plasmon resonance (SPR) data for the binding of various concentrations of soluble L^d-HF10 to ~2000 RU of biotinylated TG6 TCR immobilized in flow cell on SA sensor chip. […] Upregulation of surface CD25 and CD44 in response to TCR stimulation was measured by flow cytometry. […]

Another assay relates to tetramer+ CD8 T cells. Put plainly: Immunization with peptide-loaded dendritic cells, expansion of tetramer+ CD8 T cells. The format is in vivo. The settings on record: F1 (H2^bxd) mice, 5x10^6 dendritic cells loaded with 1μM peptide s.c., spleen 7 days post immunization, versus numbers in naive mice. The procedure:
Bone marrow-derived dendritic cells from male mice were incubated with 1μM of peptide for 3 hours at 37°C. Cells were washed and 5x10^6 peptide-loaded dendritic cells were injected subcutaneously into naive F1 (H2^bxd) female mice. Mice were sacrificed 7 days post immunization. Peptide sequences: HF10: HPGSVNEFDF; ROP5: YAVANYFFL; GRA4: SPMNGGYYM.
Figure 1 Characteristics of the L^d-HF10 specific T cell response. (A) T. gondii-specific CD8 T cells were quantified by pMHC tetramer staining and flow cytometry of splenocytes at different time points after intraperitoneal infection of F1 (B6xB6.C) mice. Fold change between naive and expanded T cells was calculated using the average number of tetramer+ cells in each population in naive mice (GRA6 = 74.4, ROP5: 654.9, GRA4: 1330). (B) Flow cytometric analysis of size (FSC or forward scatter) or expression of activation and effector markers (CD71, KLRG1, and CD25) on gated tetramer^+ splenic CD8 T cells at day 5 post infection. (C) Mice were immunized with bone marrow-derived dendritic cells loaded with the indicated peptides. Expanded tetramer^+ CD8 T cells were quantified by tetramer staining of splenocytes 7 days post immunization (open circles). Numbers of tetramer^+ CD8 T cells in the spleen were quantified by tetramer enrichment of naïve mice and were used to calculate the fold expansion of each antigen-specific T cell population (closed circles). Statistical significance of differences in fold change between the three groups was calculated using Mann-Whitney tests. GRA6 vs. GRA4: p < 0.0001, GRA6 vs. ROP5: p < 0.0001, GRA4 vs. ROP5: p=0.0002. Statistical significance between tetramer+ T cell populations was calculated by two-way ANOVA. The interaction p-values are as follows: GRA6 vs. GRA4: p < 0.0001, GRA6 vs. ROP5: p < 0.0001, GRA4 vs. ROP5: p=0.99. (D) The frequency of Vβ2 usage amongst L^d-HF10 specific splenic CD8 T cells tetramer enriched from naïve mice or found in T. gondii-infected mice was determined by flow cytometry. […] Clonal diversity in L^d-HF10 specific CD8 T cells was analyzed using the TCRdist algorithm ([40]). […]

Assay [2] addresses TG6 TCR, acid-base leucine zipper stabilized, soluble, biotinylated (mouse). Put plainly: SPR.

Regarding HF10 peptide p1A, the response in assay [1] came out at 550 MFI.

Turning to HF10 peptide p2A, the response in assay [1] turned out to be 100 MFI.

Consider HF10 peptide p3A, for which the response in assay [1] was 690 MFI.

HF10 peptide p4A: the response in assay [1] was 720 MFI.

HF10 peptide p5A: the response in assay [1] was determined as 400 MFI.

With HF10 peptide p6A, in assay [1], the response came to 440 MFI.

HF10 peptide p7A: the response in assay [1] was determined as 670 MFI.

For the substance HF10 peptide p8A, the response in assay [1] was 120 MFI.

With HF10 peptide p9A, in assay [1], the response is 430 MFI.

Consider HF10 peptide p10A, for which the response in assay [1] came to 60 MFI.

In the assay with TG6 TCR, “HPGSVNEFDF [HF10, 10mer peptide from the C-terminus of T. gondii protein GRA6, presented by MHC-I L^d]” displayed a ka2 of 0.002 s⁻¹, a kd1 of 0.014 s⁻¹ and a kd2 of 0.005 s⁻¹. Further, the “Fold expansion of tetramer+ CD8 T cells” value with tetramer+ CD8 T cells is 4000 x.

Regarding SPMNGGYYM [GRA4], the “Fold expansion of tetramer+ CD8 T cells” value in the assay with tetramer+ CD8 T cells stood at 50 x.

As for YAVANYFFL [ROP5], the “Fold expansion of tetramer+ CD8 T cells” value in the assay with tetramer+ CD8 T cells is 300 x.

“soluble L^d-HF10 (HF10 fused via a linker to β2m, disulfide-trapped), wild-type peptide (peptide-MHC)” gave a Kd in assay [2] of 420 nM.

Turning to “soluble L^d-HF10 (L^d α1-α3 with HF10 fused via a linker to β2m, disulfide-trapped) (peptide-MHC)”, the Kd in assay [2] was found to be 400 nM.

In assay [2], “soluble L^d-HF10 with alanine at peptide position 1 (peptide-MHC)” gave a Kd of 1020 nM.

For “soluble L^d-HF10 with alanine at peptide position 2 (peptide-MHC)”, the Kd in assay [2] was determined as 1840 nM.

Substance “soluble L^d-HF10 with alanine at peptide position 4 (peptide-MHC)” came in with a Kd in assay [2] of 2400 nM.

Take “soluble L^d-HF10 with alanine at peptide position 5 (peptide-MHC)”: the Kd in assay [2] was 1850 nM.

Turning to “soluble L^d-HF10 with alanine at peptide position 9 (peptide-MHC)”, the Kd in assay [2] was 170000 nM.

The values are drawn from paper PMC9372435, “Peptide Centric Vβ Specific Germline Contacts Shape a Specialist T Cell Response” (Frontiers in Immunology, 2022).
